Assay results from paper PMC9482650, “Quantitative fragmentomics allow affinity mapping of interactomes” (Nature Communications, 2022).

T1: PDZD7_2, Q9H5P4
T1 sequence (Q9H5P4 205-303, limits assumed, looked up): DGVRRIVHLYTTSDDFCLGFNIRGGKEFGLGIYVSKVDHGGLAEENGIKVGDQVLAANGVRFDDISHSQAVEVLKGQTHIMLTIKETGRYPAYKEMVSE

T2: PTPN13_5, Q12923
T2 sequence (Q12923 1877-1975, limits assumed, looked up): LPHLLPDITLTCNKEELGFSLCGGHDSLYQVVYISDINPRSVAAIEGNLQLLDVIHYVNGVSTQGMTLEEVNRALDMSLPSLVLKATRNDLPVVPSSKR

T3: PDZD2_6, O15018
T3 sequence (O15018 2745-2839, limits assumed, looked up): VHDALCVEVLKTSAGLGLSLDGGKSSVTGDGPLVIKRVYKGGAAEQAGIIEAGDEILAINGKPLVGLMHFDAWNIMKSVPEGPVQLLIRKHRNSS

T4: PTPN13_4, Q12923
T4 sequence (Q12923 1783-1878, limits assumed, looked up): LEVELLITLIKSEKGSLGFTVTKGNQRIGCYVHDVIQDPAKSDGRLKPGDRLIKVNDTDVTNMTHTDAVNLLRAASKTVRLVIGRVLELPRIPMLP

T5: MPP5, Q8N3R9
T5 sequence (Q8N3R9 251-346, limits assumed, looked up): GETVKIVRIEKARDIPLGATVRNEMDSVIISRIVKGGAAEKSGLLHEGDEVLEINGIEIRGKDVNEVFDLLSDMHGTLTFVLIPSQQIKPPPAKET

T6: SHROOM3, Q8TF72
T6 sequence (Q8TF72 20-120, limits assumed, looked up): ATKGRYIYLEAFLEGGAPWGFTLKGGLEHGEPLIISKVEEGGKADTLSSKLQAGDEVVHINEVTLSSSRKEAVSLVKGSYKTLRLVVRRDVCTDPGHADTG

T7: MPDZ_3, O75970
T7 sequence (O75970 372-473, limits assumed, looked up): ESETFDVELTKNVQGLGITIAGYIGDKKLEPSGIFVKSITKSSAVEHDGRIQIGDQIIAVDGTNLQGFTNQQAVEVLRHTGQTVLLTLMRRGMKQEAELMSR

T8: PARD6G, Q9BYG4
T8 sequence (Q9BYG4 153-261, limits assumed, looked up): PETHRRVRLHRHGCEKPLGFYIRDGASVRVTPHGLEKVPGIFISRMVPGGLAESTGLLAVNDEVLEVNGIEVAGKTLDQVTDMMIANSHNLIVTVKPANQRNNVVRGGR

T9: USH1C_1, Q9Y6N9
T9 sequence (Q9Y6N9 82-179, limits assumed, looked up): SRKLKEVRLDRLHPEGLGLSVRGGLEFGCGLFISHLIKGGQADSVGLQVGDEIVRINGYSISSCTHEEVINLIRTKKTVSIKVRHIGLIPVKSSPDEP

T10: APBA3_1, O96018
T10 sequence (O96018 389-490, limits assumed, looked up): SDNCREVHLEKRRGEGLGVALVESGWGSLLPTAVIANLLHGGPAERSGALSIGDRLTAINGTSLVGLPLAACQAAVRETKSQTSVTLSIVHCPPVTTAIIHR

T11: MPDZ_11, O75970
T11 sequence (O75970 1720-1817, limits assumed, looked up): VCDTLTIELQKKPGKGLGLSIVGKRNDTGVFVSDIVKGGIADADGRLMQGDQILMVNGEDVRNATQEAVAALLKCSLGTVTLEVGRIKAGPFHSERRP


Legend:
Assay in all cases: holdup assay
Design in all cases: key: below the threshold = too weak to quantify, mostly under pKd 3.1 to 4
Details in all cases: plain residues with an end cap or a label only (N-terminal biotin on a linker: ttds)
DLG5_2, Q8TDM6 = target: DLG5_2, Q8TDM6
Chain of DLG5_2, Q8TDM6 (Q8TDM6 714-800): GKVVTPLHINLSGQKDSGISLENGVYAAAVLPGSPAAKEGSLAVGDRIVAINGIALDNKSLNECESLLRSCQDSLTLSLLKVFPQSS

TJP1_1, Q07157 = target: TJP1_1, Q07157
Chain of TJP1_1, Q07157 (Q07157 18-120): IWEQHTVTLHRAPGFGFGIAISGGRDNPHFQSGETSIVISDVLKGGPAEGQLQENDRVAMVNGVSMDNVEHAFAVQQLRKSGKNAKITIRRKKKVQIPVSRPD

PDZD7_2, Q9H5P4 = target: T1, PDZD7_2, Q9H5P4
LMO7, Q8WWI1 = target: LMO7, Q8WWI1
Chain of LMO7, Q8WWI1 (Q8WWI1 1037-1138): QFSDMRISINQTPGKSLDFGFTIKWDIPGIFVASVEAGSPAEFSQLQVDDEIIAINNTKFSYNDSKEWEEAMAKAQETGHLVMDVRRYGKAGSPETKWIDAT

MAGI3_6, Q5TCQ9 = target: MAGI3_6, Q5TCQ9
Chain of MAGI3_6, Q5TCQ9 (Q5TCQ9 1014-1103): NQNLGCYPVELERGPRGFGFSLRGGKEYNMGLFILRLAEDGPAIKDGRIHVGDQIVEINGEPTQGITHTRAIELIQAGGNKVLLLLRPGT

SCRIB_4, Q14160 = target: SCRIB_4, Q14160
Chain of SCRIB_4, Q14160 (Q14160 1095-1204): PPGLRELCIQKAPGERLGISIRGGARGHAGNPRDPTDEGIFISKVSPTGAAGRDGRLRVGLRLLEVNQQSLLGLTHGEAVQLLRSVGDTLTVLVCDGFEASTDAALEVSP

PTPN13_5, Q12923 = target: T2, PTPN13_5, Q12923
DLG2_1, Q15700 = target: DLG2_1, Q15700
PDZD2_6, O15018 = target: T3, PDZD2_6, O15018
PTPN13_4, Q12923 = target: T4, PTPN13_4, Q12923
MPP5, Q8N3R9 = target: T5, MPP5, Q8N3R9
DVL2, O14641 = target: DVL2, O14641
Chain of DVL2, O14641 (O14641 260-359): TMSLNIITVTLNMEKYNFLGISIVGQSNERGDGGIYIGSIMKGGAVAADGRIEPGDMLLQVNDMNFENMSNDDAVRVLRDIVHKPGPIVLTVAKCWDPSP

SHROOM3, Q8TF72 = target: T6, SHROOM3, Q8TF72
GIPC3, Q8TF64 = target: GIPC3, Q8TF64
Chain of GIPC3, Q8TF64 (Q8TF64 107-202): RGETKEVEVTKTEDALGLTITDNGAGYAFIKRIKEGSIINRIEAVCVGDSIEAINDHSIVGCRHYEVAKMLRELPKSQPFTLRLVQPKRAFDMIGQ

MPDZ_3, O75970 = target: T7, MPDZ_3, O75970
GRIP2_2, Q9C0E4 = target: GRIP2_2, Q9C0E4
Chain of GRIP2_2, Q9C0E4 (Q9C0E4 137-245): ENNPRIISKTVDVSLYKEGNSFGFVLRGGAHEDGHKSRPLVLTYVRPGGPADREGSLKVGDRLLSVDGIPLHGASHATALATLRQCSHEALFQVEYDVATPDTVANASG

GIPC2, Q8TF65 = target: GIPC2, Q8TF65
Chain of GIPC2, Q8TF65 (Q8TF65 112-203): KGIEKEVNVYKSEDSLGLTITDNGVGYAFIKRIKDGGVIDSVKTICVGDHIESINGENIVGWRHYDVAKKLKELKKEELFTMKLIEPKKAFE

MAGI3_4, Q5TCQ9 = target: MAGI3_4, Q5TCQ9
Chain of MAGI3_4, Q5TCQ9 (Q5TCQ9 716-815): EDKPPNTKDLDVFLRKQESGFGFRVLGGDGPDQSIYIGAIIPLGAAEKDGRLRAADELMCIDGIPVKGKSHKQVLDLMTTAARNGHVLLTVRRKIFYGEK

MAST3, O60307 = target: MAST3, O60307
Chain of MAST3, O60307 (O60307 945-1048): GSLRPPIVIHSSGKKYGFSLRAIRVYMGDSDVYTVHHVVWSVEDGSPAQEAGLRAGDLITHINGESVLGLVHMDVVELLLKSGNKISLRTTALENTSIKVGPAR

PARD6G, Q9BYG4 = target: T8, PARD6G, Q9BYG4
PARD3_1, Q8TEW0 = target: PARD3_1, Q8TEW0
Chain of PARD3_1, Q8TEW0 (Q8TEW0 264-372): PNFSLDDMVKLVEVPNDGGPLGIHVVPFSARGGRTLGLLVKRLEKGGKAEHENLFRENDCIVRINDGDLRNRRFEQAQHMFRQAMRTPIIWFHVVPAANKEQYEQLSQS

USH1C_1, Q9Y6N9 = target: T9, USH1C_1, Q9Y6N9
APBA3_1, O96018 = target: T10, APBA3_1, O96018
MAGI1_3, Q96QZ7 = target: MAGI1_3, Q96QZ7
Chain of MAGI1_3, Q96QZ7 (Q96QZ7 638-725): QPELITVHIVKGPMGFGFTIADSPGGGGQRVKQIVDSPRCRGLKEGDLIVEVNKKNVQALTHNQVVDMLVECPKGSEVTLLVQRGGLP

MPDZ_11, O75970 = target: T11, MPDZ_11, O75970

pKd (DLG5_2, Q8TDM6)	pKd (TJP1_1, Q07157)	pKd (PDZD7_2, Q9H5P4)	pKd (LMO7, Q8WWI1)	pKd (MAGI3_6, Q5TCQ9)	pKd (SCRIB_4, Q14160)	pKd (PTPN13_5, Q12923)	pKd (DLG2_1, Q15700)	pKd (PDZD2_6, O15018)	pKd (PTPN13_4, Q12923)	pKd (MPP5, Q8N3R9)	pKd (DVL2, O14641)	pKd (SHROOM3, Q8TF72)	pKd (GIPC3, Q8TF64)	pKd (MPDZ_3, O75970)	pKd (GRIP2_2, Q9C0E4)	pKd (GIPC2, Q8TF65)	pKd (MAGI3_4, Q5TCQ9)	pKd (MAST3, O60307)	pKd (PARD6G, Q9BYG4)	Binder	also measured
below the threshold	below the threshold	below the threshold	below the threshold	4.72	below the threshold	below the threshold	below the threshold	below the threshold	below the threshold	below the threshold	below the threshold	below the threshold	below the threshold	below the threshold	below the threshold	below the threshold	below the threshold	below the threshold	below the threshold	QSARYRDTEL [TJP2, Q9UDY2]	pKd (PARD3_1, Q8TEW0): below the threshold; pKd (USH1C_1, Q9Y6N9): below the threshold; pKd (APBA3_1, O96018): below the threshold; pKd (MAGI1_3, Q96QZ7): below the threshold; pKd (MPDZ_11, O75970): below the threshold
below the threshold	below the threshold	4.54	below the threshold	4.21	4.29	below the threshold	4.21	below the threshold	below the threshold	below the threshold	below the threshold	below the threshold	4.21	4.18	below the threshold	below the threshold	below the threshold	4.29	below the threshold	STLTIFETAL [ABCC4, O15439]	pKd (PARD3_1, Q8TEW0): below the threshold; pKd (USH1C_1, Q9Y6N9): 4.33; pKd (APBA3_1, O96018): below the threshold; pKd (MAGI1_3, Q96QZ7): below the threshold; pKd (MPDZ_11, O75970): below the threshold
below the threshold	below the threshold	below the threshold	below the threshold	below the threshold	below the threshold	below the threshold	below the threshold	below the threshold	below the threshold	below the threshold	below the threshold	below the threshold	below the threshold	below the threshold	below the threshold	below the threshold	below the threshold	below the threshold	below the threshold	PKTPPTDTSV [KIR3DL3, Q8N743]	pKd (PARD3_1, Q8TEW0): below the threshold; pKd (USH1C_1, Q9Y6N9): below the threshold; pKd (APBA3_1, O96018): below the threshold; pKd (MAGI1_3, Q96QZ7): below the threshold; pKd (MPDZ_11, O75970): below the threshold
